Values joined by “and” are separate entries in the source; they are usually repeats but may differ in a detail not shown here. Equal values may be shown once.

In PMC3005839 one finds stoichiometry N (HMGN : nucleosome core particle) and stoichiometry N (HMGN : nucleosome) data, which are given here for two substances.

The target in experiment [1] is Nucleosome core particle NCP-601 (Xenopus laevis). In words: native gel or EMSA; near physiological ionic strength: 1X TBE (89 mM Tris-HCl, 89 mM boric acid, 1.0 mM EDTA, pH 8.3); preassembled NCP or array incubated with HMGN about 30 min at room temperature, electrophoresis at 4°C; 0.5 μM nucleosome core sites. (In general: Mobility shift assays separate free from complexed probe on a gel.)

The target in experiment [2] is Nucleosome core particle NCP147 (Xenopus laevis). The experiment is described as above.
The target of experiment [3] is Nucleosome core particle NCP-601 (Xenopus laevis). In words: native gel or EMSA; low ionic strength: 0.25X TBE (0.25X TAE for 12-array); preassembled NCP or array incubated with HMGN or NBD peptide about 30 min at room temperature, electrophoresis at 4°C; 0.5 μM nucleosome core sites; NCP on 6% polyacrylamide, array on 1% agarose/1.3% polyacrylamide.
Experiment [4] addresses Centered nucleosome core particle NCP146b (Xenopus laevis). The experiment is described as above.
Experiment [5] addresses Nucleosome core particle NCP147 (Xenopus laevis). The experiment is described as above.

Consider Xenopus laevis HMGN1 (natural protein), for which the stoichiometry N (HMGN : nucleosome core particle) in experiment [1] and in experiment [2] was 2 each time. In addition, the stoichiometry N (HMGN : nucleosome) was 1 and 2 in experiment [3]; 1 and 2 in experiment [4]; 1 and 2 in experiment [5].

Regarding Xenopus laevis HMGN2 (natural protein), the stoichiometry N (HMGN : nucleosome core particle) in experiment [1] and in experiment [2] was 2 throughout. Further, the stoichiometry N (HMGN : nucleosome) in experiment [3] is 2 and 1; in experiment [4], 1 and 2; in experiment [5] it was 1 and 2.
